Test results taken from patent CN1997751A (AGENSYS INC, dated 2007).

T1: PSCA (prostate stem cell antigen), human, PSCA v.1 (human, UniProt O43653 12-83)
T1 construct: whole, on cells; also called PSCA变体1; 人PSCA
T1 sequence (looked up): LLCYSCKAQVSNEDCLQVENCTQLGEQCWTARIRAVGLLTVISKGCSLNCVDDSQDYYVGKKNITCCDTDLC

B1: Ha1-4.37 (antibody, V domains shown)
VH: PGALQESGPGLVRPSQTLSLTCTVSGGSISSGGTYYWIWIRQHPGKGLEWIGYIYYSGSTYYNPSLKSRVTISVDTSKNQFSLKLSSVTAADTAVYYCARDGITMVRGISGGMDVWGQGTTVTVSS
VL: ASVGDRVTITCRASQSISSHLNWYQQKPGKAPKLLIYAASSLQSGVPSRFSGSGSGTDFTLSISSLQPEDFATYFCQQSYSIPRTFGQGTKVEITR
notes: ATCC PTA-6702
B2: Ha1-5.99 (antibody, IgG2, V domains shown)
VH: QVHLQQWGAGLLKPSETLSLTCAVYGGSFSGYYWSWIRQPPGKGLEWIGEINHSGSTSYKPSLKSRVTVSVDTSKNQFSLKLSYVTAADTAVYYCARDRGDYGDFLFDYWGQGTLVTVSS
VL: SPGERATLSCRASQSIGSTYLAWYQQKPGQAPRLLIYGASSRATGIPERFSGSGSGTDFTLTISGLEPEDFAVFYCQQCGSSPPTFGQGTKVEIKR
notes: ATCC PTA-6703; also called Ha1-5.99.1; HA1-5.99.1
B3: Ha1-1.16 (antibody, V domains shown)
VH: QVQLQQSGPGLVKPSQTLSLTCAISGDSVSSNSAAWNWIRQSPSRGLEWLGRTYYRSKWYNGYAVSVKSRMTINPDTSKNQFSLQLNSVTPEDTAVYYCARERLGELYGMDVWGQGTTVTVSS
VL: QLTQSPDSLAVSLGERATINCKSSQNILYRSSKKNHLVWYQQKPGQPPKLLIYWASTRESGVPARFSGSGSGTDFTLTISTLQAEDVAVYYCQQYYSTPPTFGQGTRLEIKR
notes: ATCC PTA-6698; also called Ha1-1.16.1
B4: Ha1-4.117 (antibody, V domains shown)
VH: QVQLQESGPGLVKPSQTLSLTCTVSGGSISSGGYYWIWIRQHPGKGLEWIGYIYYNGNTYYNPSLKSRVTMSVDTSKNQFSLKLSSVTAADTAVYYCARDGITMIRGYYYGMDVWGQGTTVTVSS
VL: QLTQSPSSVSASVGDRVTITCRASRGISSWLAWYQQKPGKAPKLLIYTASSLQSGVPSRFSGSGSGTDFTLTISSLQPEDFATYYCQQAYSFPRTFGQGTKVEIKR

What follows are binders tested against T1, PSCA (prostate stem cell antigen), … (assay: FACS titration on SW780 cells, sigmoidal dose-response fit (Graphpad Prism)).

Binder | Kd
B1 | 230 pM
B2 | 280 pM
B3 | 6910 pM
B4 | 320 pM
